Measured values reported in the DeepSol protein solubility set.

Assay: soluble on expression in E. coli; label from the status in PepcDB or PDB records

| Sequence | soluble on expression in E. coli |
| --- | --- |
| GPGSMGSEESNNICAYKRTISLAKIYIVLLVKTAMLRYSRLCFPKMGCEEIKRKARRVQLQPTEYLAQHRMQVWQLRFKEMGPPFSRVWVALGGKMRRRRVGRQVDVKDMRYYWRPIEPQYQRLYMSRLRIRDHSNKLRQPMRLRATNADIGSGSSSIEWERASNRKYGAMLAPPKRQDFEFRVV | not soluble |
| GPGSMGSGCSTESSTDVRCSFVGLMDEKKESWRGRLLGDIGKDPTGVTRDFPRTQVYVAAPNRNNYYREKQDHVSVLVLKDKEDESKYFSDRNERVRESLELLVELCGEDSSVIKSEWEKQQKDIPDSSSLLMTVLLESGMMRATEANTENGGAGGETDAVTNIQNGGGGYAPKYTVHSKALRLMQYMVQSVAFFSTQHVTDALRFSWCKHMQDVSWAVYVYTEGGACGKERNSSDEILVLRHMHTLRHYVGQSERSTHPRFEVDWACTFHIDLKRLLDANNTAAKEATFAPEGEVQRIDGELLAARIESPNRKLCRITSTWKKRRSELEGRLMECFGVELTKVDVLDENGPLSALNSGG | not soluble |
| GPGSMHAFRTRDITLRVPSKDKLLRFSFCSSRHLLAETIRRHDLLRSTGAHVDFLQLLGTQITFTSLLASALEGEERVEARFTAEEATILTEALALGECRCYLRPEYNAQLAECGLPTFPLRVNRILYRQEKPFSSVVHADLAELLQPPCDVASSFAAASSGANEASGAPFSLYLPDMERRVPLEAWKSFFSYNSSLHAYNYLRRSDGSVPAVWLQSRIDAVRLVDHGFLNVDSTAAAAAWQRGEACSDEDDEKAQDIRRALLHAIPFSFGVVVTPLAAGVAVDQRVNQLNRVVMEAAALLSAPSGGGATVTSALQPLLDRCAEKHTACQHILSLVSGDHDGAYQAAVAARQYNDDPAQVAAVVDPIRRALGVQDFVVPLAATEAARSGLDFFCRCSKQNVLESLVSAPPRALESLKGSDNTVHCSFCGRRYKLAGAEWQELEMARSASTPPQ | not soluble |
| GPGSMIFFFTLNLHDRSSLDLRVEFLFSCSDSSDSVAQHLRAIGMRGQLVQKGAATLYAGPKIASYTDACEAPVAMWEGAIPLKHERVLNGGVATRVVKKTYSHPPEIHPTNLSFNDIDSMYCLGNDELIKYFPEGVGGKMMQLMPPGHPRGFLYRKQSHLLNCFIDKLPFWQSKEKALRSLTNGRPGFIMDGPTGCGKSALLCQAVHYARSRDIITLYIANAKAWTHGEWCWPSTILPGFFDAPDAAREFLRTVAEANGSLLQAWELRVTPQDLPLEQGEKQPRSLYDLCEWGHRAVAPASIDRQSVCIKFFFDEIRAEKTKPIIIAVDGWNLFSHETHFRYPHPDFLRTLTTLNDGLTDVDLYPQELPRIPASRLSFVRGLNKLILSKQDPNKFFITCTTRDFKPFDGVSGFADVENDRFKNSLDEYAPYDPEKDSFFHPMQVENFTEYEYRAFLRFAINSGELAGLGWGPMWHYSSDFERKLYKIDFMSDRNPQRVVDHYHQELVWRYEYKRTRQKQYLLARRKMWQGAEVSNPLRNGK | not soluble |
| GPGSMITEGAATPCAEVPAIRRVRRTRSRFERLVRPEDVAPGEPTPSVEGWVLFLTNLPPNTTMDHITDLFVTREGEGLWNVREVKMPLDKNCECCGYALVELEKREAFEAALRDMEGMTLSFAEGEPPNGEDAWRLHIAPTFLGEKDDEEEELVAGGKRERE | soluble |
| GPGSMKLTFYRLLGCPYCAKVEAVLQYHDVPYEEVHVDPLSGKGLPDRRYQLAPQLYLAPLAKRNSGGAEAAATDSNGVYVVDSAEIVSRLSGPLKYAADIANPRISATRDWITNHFHGASFAITNNSFCDAYATYAYVTPSNYQNFLYHVVGSAALSVLSRYKIQPRLIAKMECADGPAAATPTGAPASTDSNGLWMLSEASRKALAATVRFGAVEEWLRAELQTFLQRRPADKVFHGGSSPDLADVEMYGVTRVVDQHPRLGAVVREGAFGEWQTAMREKLKANTGSVYA | not soluble |
| GPGSMKRSRRATQQEDVMRALKEGVQALSVSSALSTKDLVCRGDHARAIQQFLEDEKHHTMQIFGMPGTGKTATVNFALAQLVSRRGTKPTAVFLNGFVVQKSSDIYYTLHHHLTKARLGAVEPCPVAQCASRIEKRFRHGWGGKPPALCVIVVDEVDKILEKHSKGFFKVVDWLTLPYANCKLITISNSMELQLDAKTKSRLGVVNQLVFSSYGTQELREILVHRVGAIEPKLFADQAVNQLCTQTASHYGDVRRLLQSASAAICGVLMRMRDDAVDVSSTDGIITLREIHTVVRQIFHDRFVEFITTMRMPALFITVAVLGKETEALIRKREVDCRIPLERLLAITQQAQRKCMNVLRPINRAAFMEEIELLRQVSLIEVCIGEDRIPIRCVDELLDAKEEVFVLLLQPYQMVVDSCRLHDAFGATYGAALHL | not soluble |
| GPGSMLDEVLHSRVVQALLGALVMRELYSDAAVLLASVPPVLDTGGDTSSKDFGGIPSPLLVATRQDTLASLASFRQCVAARRWVEAVQIIDGSATAQSWAQATPLCAMVAFVRLEMDDPKAARALLLPYLASLPEPPSWEALSTAPVEHAQLWDNFTSHYVFSTTLLAKASFMSGSAYLNISAALLQRALRLSPSYAPARLFAEFVLSFEAQQQHVDAAVSASDYPKVLSVTAEMLRMPEVTRLVRAELYLVRTQAQWMRGQPLEVVHEASRCEQCDPQCALAFRLRADAFAMMSRETEAAADLAVAKHLNARVGALFDELQVQRSRRNAAQVEAKAKRNSVPAFKSFPSASAPLRSSATESFCGSTRRSGAQARMSTDTELSPSLRTHYDVLGVSSNASEAEIRRRYRRLTLQLHPDRLVGAAESDRRAALEAFQLLGNAYSVLSDTQLRATYDAGLPGLH | not soluble |
| GPGSMNAASYSGSGLASAATVEDVVKPDTIAAILAQLKEQDVRIGRLEAAVERSAINRTHFDILTMAGVTADFVCDEISFHNRSTVEFNALPCKVTLDYPCGELSILLDDADSDLSFLGVTLRVDCITDCHLLVDPDNCSVVVDTNTSKITDVTQLVLVGPTQEATRELYEALRDVVAQRRPPCSPAPDTTTTTTRNSSRALINRSEGEYESTLGGDGKLFSIEATPNNAGTTRNNVDASSSPRLQLSNTLPCDRTAHTPVDPRRPNTLPSFSANRKGTQQE | soluble |
| GPGSMNIQGMALHGHMKPVTMIKFNREGDLLFSTAKEPNVSVWYTKTGERLGTYDGHSAISACDVNNYSTLLVTGGMDFKAKLWCVETGEELANIMLRTPARAVGFSHDDNLLMVSTSRKMGQKSAVQLYNLPFLPPKDGYSIHPVNTVFNPCTEFVSENDDVTFAIWGPTNDTIYYSTSDGSVAILDVETMSTVCTHKPHEETINRISFDSNYYTLITASKDKTARLLDSRDLSVVQTYTSDVPVNDASISPRGDHVIIGGGMDAQDVTTQGGQTTFEVKFYHKVHEKQLGQVRCHFGTINSVCFFPDGRGFASGAFDGLVKLHRFDDKYSSTPGAIPLWTPEGI | not soluble |
| GPGSMNLELYVTLADLSRLPRGEPHDVKTLICRADTVRAPRPRELLSGRVFDISGQLLDTEYKGMPGETCVHVFFYDEWASAASFIERDDIVILKGFTVYDTPRVGDHDVEFPFFVTPIPHMAALRALQKGHKDDIMEVTVTADALETPNIRVMPKRLWGSYIANDMQCPRTNND | soluble |
| GPGSMPHSMDTTLFSDENRIDRGDSLLFHCVQLSQGGTDSHRYFFGCYFPRWRGFYMDEARELPGPLGYNVTRHFPAFPFDVYLKDDGEHFLTDDFQIGSIFTLGGPLNQRDDGQKRYKVVHCDDSQLRTRTGKTLAFIGNNVSGLLQQTHRVSGEAIDALKRIREAYIFNVGNGIPEVGIKAMGRHFRKVGSDGRRWMSYEGIVRFVKDSRNFNATLSFSDTQRTEEDVNTVATCIYNAFPKNEEECIDYDFFMDYVRGPMSQERKDAVWNIFRRMDYDRDGNLNIIDIQACYNTQDHPTCSVDHLFQSDKMLKGFLTIWDENERCGLVPYAEFLDYYNGVSAVLEDDKVFFDVLNNQWKLL | soluble |
| GPGSMPLTAAGMRTLMRQMQEVQEHPVDGVQVRPSDSMNEYHFDVDGPEGTPFAAGRFHVVLIFDEQYPEVPPKGFFRTKIFHPNISERGDICVNTLKRDWSPMLGLRHILVVIRCLLIEPNPESALNEEAGRLILEEYAAYERKAAMYTAINAARPNGVPRFTLPEVKAEKASGSVTACASAGAAADSGASATAAAAAASASSMANGGAPSTATRGLTLSEANCHPGSATAAEKAEKSKKKALRRI | soluble |
| GPGSMPPTHLLPTIDVSLRDKLSRFVESRGLLQMALEIATDDERRFDLAVQLKQLLLAHEIASAANVASHWKQVGDIALEQGYFEMAIESLEKCNDWSGLLLIYTSLNDMEAISRLGDRCLQRGQANLAFTCYHLTQRHAECVELLQKTGKTGDAAFYARTYYPSLIEDAVAKWRVSVASIPRVSQALASPAAYPNLFPSLRNVDLLPPKGSEADAPLNAQPPPPGASASLHGSCTAPTVADWFQPAAAAPQQLMHPPPLPDNVDSEPSGMQELADEEETWGED | soluble |
| GPGSMPSKRATRVQKLHEGTGDDNLPVFSIFIEKEGEGQYGRIDIEIFVNKVPKSCEIFLHSCPAALTGDKRVSKPSLVRQHRFLRLTNEGLQVGERPVSRLVSLSDIENEIGRVNHGIGVVSLCRSSNTFDESFFFCLTDNRTELESLDKRHTAFGRVVYGLELLFLLRDALIPYVKEGCVIEGSPYAISDILPKAAT | soluble |
| GPGSMSGGSTALKLQRLLEAEGAVIHSALQVRALPSMGGGMGVVLTERLAAGAVLARFPFRSMITARKARFNLAMAEVALELLEGHVATASTNNGSEGDNGSAGPCAATDVLHVIPFASRVWSEYEFETRVRSRRLRQLIDAKVEELAGALDSTETIVCYVLLMAALYGRLSKHARLRRSGADDGAADEEASVSGTEACACGDEAGPAPTLHYTHENAWMRTWIHALPAQYDNLLELVPVPEDSPPCLAQHGTEPECAARAPSVLSGNATTASPPPPLLARVSAYTKSSGWLRSYISLCRFQASVAREQQAIQRRHAKCCAALRCLQRLPRGVEVTEELADAGHGAAAPQNRVFASCGSSPSSSQQDCGRHDHGAACTLGQFLWAFNTLMSRGFYFPEATWALMPFVDYFNYALESNGTMYPQEDDPEDPGCFTNLLLAKTSRNGIGSVAPLMAAAAPRKQQWRTALRTARVGKAAVPLANYQTYEFQLVRPTCPPSEQVMLHYGAYSDVELLMWYGFTLRPSLLPAPQLAAAPEGRKKGTIPVLPPCLSDADGSLLHAAHGLRLALSQLASATTRVAYYRRWVAPLHRCDGAAASDADAAAACKTWLAALHCAYRLPLSPIANAEGKYPEATPGATWLDELLSAFAQTPAVAAPCTDAASEDEAAYRIDAWMRRWGSERWPGFAASAFPNITKGCAFGVLGLSPVLRAAVHSSFWTPTPERSSLSAGERLLVVRGLAWAELYVNMTAAAHADGWTTSSVPASAAAAECARTMSVDQWTLLRFLALESTDAALEEYVEYVSESEG | not soluble |
| GPGSMSIHQTKVCSVNEPLSNPDDSALEYCVEAQSPVNRTTSTWEFRSKLFPHAFAAVLDTDLSESETTQRELAEWTRKRCRNYERQGDILRSQLGVLVSSGAANGKRSDADDGDDEAFLVGLGEWSLQESSSQYLNSAKKKKCHRQLRCKDSYESALLLERQWSERHAVSLKHSCMKGAHPTPAAQNFELGCAKDLCRDASSVEIHSITPAASVVAAEKTRSVTACEPPTEQERKKNRGVASEHEGTQNFAEHLVVQYFIPDGSEAESGKSSNDTRGGACGRGLYSMPLSVFRYHYPQLLLDFLLQHSVVMESS | not soluble |
| GPGSMSLLNTTLQTLVVRLRDMSGNVTQQKLHNRVFDAYEAKSLVFEAISPEQQAVMQQFGTIPSQHPAGQPVLLDGWADLLTVHREDNLYQLLPRRAKNNASYSTMRAICCSAGSPFTMDHRVDPIDYKFVFRAADMEVRNKFNATNQDKIPPTIWFDGILSAPNDSGLVSCHNSLSPAHINNLAGTYQFLKEWSNEPPEGDRHRQLKEMYSNLLSKRTHLFIGSSSVPGREILNYARSKNVFVYAKRGMHYVFHA | not soluble |
